Measurements: PMC1636449 (Nucleic Acids Research, 2006)

What was measured:
[1] = molecular target: T1, Bacillus stearothermophilus DnaB helicase (Bacillus stearothermophilus, UniProt Q9X4C9 1-454); experiment: SPR
T1 sequence: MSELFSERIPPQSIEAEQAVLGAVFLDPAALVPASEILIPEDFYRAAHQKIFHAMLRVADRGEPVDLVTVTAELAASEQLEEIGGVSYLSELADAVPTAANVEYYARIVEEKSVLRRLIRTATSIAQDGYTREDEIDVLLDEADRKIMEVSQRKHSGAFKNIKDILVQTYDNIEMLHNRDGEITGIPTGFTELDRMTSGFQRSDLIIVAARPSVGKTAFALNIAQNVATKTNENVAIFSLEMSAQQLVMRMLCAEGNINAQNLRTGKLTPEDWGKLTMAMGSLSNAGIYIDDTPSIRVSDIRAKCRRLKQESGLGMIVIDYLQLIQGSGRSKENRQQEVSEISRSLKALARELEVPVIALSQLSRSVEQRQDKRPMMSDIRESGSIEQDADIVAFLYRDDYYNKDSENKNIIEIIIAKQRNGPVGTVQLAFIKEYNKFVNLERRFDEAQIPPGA

[2] = molecular target: T1, Bacillus stearothermophilus DnaB …; experiment: SEC

B1: Bacillus subtilis DnaI (wild type) (natural protein)
chain: MEPIGRSLQGVTGRPDFQKRLEQMKEKVMKDQDVQAFLKENEEVIDQKMIEKSLNKLYEYIEQSKNCSYCSEDENCNNLLEGYHPKLVVNGRSIDIEYYECPVKRKLDQQKKQQSLMKSMYIQQDLLGATFQQVDISDPSRLAMFQHVTDFLKSYNETGKGKGLYLYGKFGVGKTFMLAAIANELAEKEYSSMIVYVPEFVRELKNSLQDQTLEEKLNMVKTTPVLMLDDIGAESMTSWVRDEVIGTVLQHRMSQQLPTFFSSNFSPDELKHHFTYSQRGEKEEVKAARLMERILYLAAPIRLDGENRRHP
[1]
  stoichiometry N: 1 DnaI per stearoDnaB subunit

B2: B. subtilis DnaI C101A mutant (natural protein)
chain: MEPIGRSLQGVTGRPDFQKRLEQMKEKVMKDQDVQAFLKENEEVIDQKMIEKSLNKLYEYIEQSKNCSYCSEDENCNNLLEGYHPKLVVNGRSIDIEYYEAPVKRKLDQQKKQQSLMKSMYIQQDLLGATFQQVDISDPSRLAMFQHVTDFLKSYNETGKGKGLYLYGKFGVGKTFMLAAIANELAEKEYSSMIVYVPEFVRELKNSLQDQTLEEKLNMVKTTPVLMLDDIGAESMTSWVRDEVIGTVLQHRMSQQLPTFFSSNFSPDELKHHFTYSQRGEKEEVKAARLMERILYLAAPIRLDGENRRHP
[2]
  binding result: binds
